Assay results reported in patent publication US20040002439A1 (ORTHO MCNEIL PHARMACEUTICAL, published 2004).

Molecular target: Nav1.2 (a type II alpha subunit)
Assay: cell-based or functional assay

B1: human voltage gated sodium channel β1A subunit (other)
chain: ACGGCVEVDSETEAVYGMTFKILCISCKRRSETNAETFTEWTFRQKGTEEFVKILRYENEVLQLEEDERFEGRVVWNGSRGTKDLQDLSIFITNVTYNHSGDYECHVYRLLFFENYEHNTSVVKKIHIEVVDKGESGAACPFTVTHRRARWRDRWQAVDRTGWLCAWPANRPQQRAEGEGSSPSCPLQLWPLFLSSPRRGQSMPVPHRRSGYRTQLCHLCCMTSGRCLLSLSQRVVLGLPGIIIRCVSRGVV
ionic current conducted by Nav1.2 in Xenopus oocytes (cut-open oocyte voltage clamp): ~3 fold
